Several values for one entry are separate records, joined by “and”; a condition that tells them apart may be missing. Identical values can stand only once.
Assays:
[1] = biological target: Histidine-tagged INT-interacting MVP domains (His-iMVP), major vault protein domains 3 to 5; assay: SPR; Biacore 3000, His-iMVP amine-coupled to CM5 (410, 1860 or 1240 RU), His-INT or variant injected, 25 °C, 50 mM PBS, 150 mM NaCl, pH 7.4; 1-to-1 Langmuir fit; apparent constants
[2] = biological target: Histidine-tagged INT-interacting MVP domains (His-iMVP), major vault protein domains 3 to 5; assay: SEC; His-iMVP and His-INT mixed at equimolar ratio (70 μM), overnight at 4 °C, Superdex 75 10/300 GL; band densities of peak fractions on SDS-PAGE

Row | Kd [1] | T1/2 [1] | koff [1] | kon [1] | stoichiometry N [1] | stoichiometry N [2] | Binder
1 | 1800 nM | 9.4 min | 0.00089 s⁻¹ | 485 M⁻¹ s⁻¹ | 1 |  | His-INTΔC15 (His-INT with 15 amino acids deleted at the C terminus) (domain or fragment) CIQHWQDAVPWTELLSLQTEDGFWKLTPELGLILNLNTNGLHSFLKQKGIQSLGVKGRECLLDLIATMLVLQFIRTRLEKEGIVFKSLMKMDDASISRNIPWAFEAIKQASEWVRRTEGQYPSICPRLELGNDWDSATKQLLGLQPI
2 | 262 nM | 13.9 min | 0.0006 s⁻¹ | 2280 M⁻¹ s⁻¹ | 1 | 1 and 2 | Histidine-tagged vault-interacting domain of vault poly(ADP-ribose)-polymerase (His-INT) (domain or fragment) CIQHWQDAVPWTELLSLQTEDGFWKLTPELGLILNLNTNGLHSFLKQKGIQSLGVKGRECLLDLIATMLVLQFIRTRLEKEGIVFKSLMKMDDASISRNIPWAFEAIKQASEWVRRTEGQYPSICPRLELGNDWDSATKQLLGLQPISTVSPLHRVLHYSQG
